Assay results reported in paper doi:10.1101/580944 (bioRxiv, 2019).
Read-outs that look alike come from different tables or passages of the source. Each block holds one molecule with its values, some of them ahead of it.

What was measured:
FtsZ (E. coli) [1] = molecular target: T1, FtsZ (E. coli (by the printed UniProt entry; not said in words for the construct)); assay: FRAP
FtsZ (E. coli) [2] = molecular target: T1, FtsZ (E. coli); assay: single molecule tracking
FtsZ (E. coli) [3] = molecular target: T1, FtsZ (E. coli); assay: single molecule tracking; remark: listed apart in the source
SEC = molecular target: the molecule itself; assay: SEC

FRAP recovery half-time (at 6.0 μM ZapA) (FtsZ (E. coli) [1]): 6.66 s
FRAP recovery half-time (in the absence of ZapA) (FtsZ (E. coli) [1]): 7.63 s
lifetime of single FtsZ monomers in the filaments (with ZapA) (FtsZ (E. coli) [2]): 6.01 s
lifetime of single FtsZ monomers in the filaments (without ZapA) (FtsZ (E. coli) [2]): 6.59 s
Molecule: FtsZ (natural protein)

FRAP recovery half-time (FtsZ (E. coli) [1]): 3.01 s
lifetime of single molecules on FtsZ filaments (FtsZ (E. coli) [2]): 0.94 s
lifetime of single molecules on FtsZ filaments (FtsZ (E. coli) [3]): 0.95
Molecule: ZapA-Cy5 (natural protein)

B1: ZapA (natural protein, UniProt P0ADS2 1-109, looked up)
chain: MSAQPVDIQIFGRSLRVNCPPDQRDALNQAADDLNQRLQDLKERTRVTNTEQLVFIAALNISYELAQEKAKTRDYAASMEQRIRMLQQTIEQALLEQGRITEKTNQNFE
binding result (SEC): binds
